# Source: the DeepSol protein solubility set
# Experiment: soluble on expression in E. coli; label from the status in PepcDB or PDB records
row,Sequence,soluble on expression in E. coli
1,MGSDKIHHHHHHMVKIMQYINKSKEEFLSEIYRIVAKIRLELELTTSEITISDFEFKMDSENSKNLILMIYTPTRTDKSLLIGPGGWVVGKLREKLNGSFKENLIIRVESYIDRKKELDAIENSISHLREKGLDISSKKDALVIIQCEYDLSSIDFINEYFNPIFITFDLGTALLPHKNRNRIEQVFKDKNLKYEFLSPYSLNGEQITDAISKNPCETICNNLISEMVNYAKNKNIEIVLFNHLNKDYEFRNGIHILNFLKMFPIKLNSLIHKGRSLDCPLLIQSCKRNKITKTFKIKQIVSGVYSGLVEPTEGAEEIIKYLK,not soluble
2,MGSDKIHHHHHHMVKPDHGRKRQIELTEIGERIYQHAVELLQAEQNIFLEIENYQQLKTGTLKLGVPPLGSQLLTTALFDFHRQWPDIELAFMEVGSRGIEQALLNNELDVGVLLQPFDEQTFNSIELCNYPLMVLLRRDATWATRKKINLEELQHQSFLMFPENFSLNSIILDACKQYGFYPTIACRTSQWHLLADMVLQRMGIALLPQYYTDMLDPTLFAAVPLEKPNIQWHLVMAWKKNLPASPAVQAWLSIVRQHFQHIKP,not soluble
3,MGSDKIHHHHHHMVKWYKTYLEVYGKSFDEISDDSIRKVKRQLKERQNDSPLVSVVLIAHNEERHLISCIWSLSENHCHFPIEIIAVNNNSTDKTEEILKSLGVTYYNETKKGPGYARQCGLDHAKGKYHICIDADTLYPPHYIETHVKYLMNPKVACTFSLWSFMVDERHSRFGLWCYEGLRDIYLRLQAIQRPELCVRGMAFSFNTEIGRRFGFRTDIIRGEDGSLALAMKPYGKIVFITSRKARVLTSNGTLNSEGSLIDNIWIRVIKALKEITGLFIKKTAYKDKDSNLIK,not soluble
4,MGSDKIHHHHHHMVQTVYKNSDQTVFEDAKALFQLNKNILLKGPTGSGKTKLAETLSNVMKLPMHQVNCSVDLDTESLLGFKTIHTNEEGHQEIVFIDGPVIKAMKEGHILYIDEINMAKPETLPILNGVLDYRRQLTNPYTGEVIKAAPGFNVIAAINEGYVGTLPMNEALKNRFIVIEVDYIDGDILKTVIKEQSKLQDEQLIQHIVKFNEDLRTMTKQGQISEEAASIRALIDLSDLATVMPIERAVQRTIIDKLEDEREQQAILNAIELNF,not soluble
5,MGSDKIHHHHHHMVRPASRSERASLRIMNINPWRCEVSEKLLKQVNDKVSLCEKIAAEGFSFVPGQQIREWLLASNSEALQDWQAFDASWDGMPLDEYMADGGRYRRRRFATLSAATEGPIMLEPHQPHYQSREYNSLNGGIARIYEPIPPAVIQGQTMQSILQLSRDLFSHLRPQTRWHIEAHQFRIETNQHERGQPAPEGVHRDGVDYVLVMMVKRVNISSGTTTLHNLDKVVLDSFTLTNPLDCALVDDRRCMHGVTPVEQIDPAKAAYRDVLVVTFTAKL,not soluble
6,MGSDKIHHHHHHMVSEQVRERAKAGPIPKADYQALFDALEAERSPRDPEWVQAWIILHCATRQRAFACQRLLSRYNRQCVKRGTMGEYSEFLRHVQDDLGFYLPNGNAYTENFRGVDVGEIMAQCGELAARFAELELEVFANSGTLLGIVREGTLLEHDNDIDLGVLLTARTFEGAAQEWIALTDKLIADGVGVSRSTWSKVTLKLQKIGAFGVDLFPAWIDADDKVYVYPHTFGALRRDQLLPYDLHGPTGLHLPADAEAMLECNYGEGWRVPNVGWGFDWKTANAQFEAFLTAVEAAAAPD,not soluble
7,MGSDKIHHHHHHMWEVRYLNAELLDLKLWGEGCRLYQIRQMGDDEICLIQTDDTPQESLCERWQVVYAERGAVQQLLFEFTDEAEACEFMYREIKRIKHPHLVGLFPTDAEAEQFCQVLTQLEIQFSHDPQGRVRVYDQEIFTVERHFGCQLPLRKWLSVPERIHVTLARLRKFDPYNCYAQITTNPPIGSEAKLSELEAEHRIKLPEVYRTFLLEVCNGGNWERLGHYWSAEEVMANNSAQLWNQPLPEFLAKLKAAKSGDWLTNPGNRQYPGLLRIVDWDNPVRDLFLTQEGYEVEIQGDWIRFCEFSPEQWLKDFLDDIQYGLFPIEGLLAFLRSGELIRDYPYFHTVNFARLLAETIGLNIDPELTNEQVKMSDEIDYKINQWRIENMGKMRYNFGFNAEQAEVRRQRILERLEYLYQLYS,not soluble
8,MGSDKIHHHHHHMWFKNLMTYRLTKPLDWDLAQLQTQLEDCQFHPCGTQDQSKFGWSAPLRGSDLLYFSVGKQILLIAKKEEKILPANVVKRELDDRIESLEQKENRKLKKVEKQTLKDDVVMNLLPRAFSKNQHTALWIDTENNLIHIDAASSKRAEDALALLRKSLGSLPVVPLAFANEPSTILTNWILQDNLPHWLLALEEAELRGSQEDSVIRCKKQPLENEEILALLQDGKKVVSKLALEWEDTLTFVFNEDCTIKRLKFADTVREKNDDILKEDFAQRFDADFVLMTGILAKLTENLLDEFGGEKARL,not soluble
